Test results: publication PMC8031885, “Targeted mutagenesis on PDGFRα-Fc identifies amino acid modifications that allow efficient inhibition of HCMV infection while abolishing PDGF sequestration” (PLoS Pathogens, 2021)
Numbering of substitutions follows the chain as printed. Numbers in names are those of the source.

B1: PDGFRα-Fc wild type (Fc fusion)
chain: QLSLPSILPNENEKVVQLNSSFSLRCFGESEVSWQYPMSEEESSDVEIRNEENNSGLFVTVLEVSSASAAHTGLYTCYYNHTQTEENELEGRHIYIYVPDPDVAFVPLGMTDYLVIVEDDDSAIIPCRTTDPETPVTLHNSEGVVPASYDSRQGFNGTFTVGPYICEATVKGKKFQTIPFNVYALKATSELDLEMEALKTVYKSGETIVVTCAVFNNEVVDLQWTYPGEVKGKGITMLEEIKVPSIKLVYTLTVPEATVKDSGDYECAARQATREVKEMKKVTISVHEKGFIEIKPTFSQLEAVNLHEVKHFVVEVRAYPPPRISWLKNNLTLIENLTEITTDVEKIQEIRYRSKLKLIRAKEEDSGHYTIVAQNEDAVKSYTFELLTQVPSSILDLVDDHHGSTGGQTVRCTAEGTPLPDIEWMICKDIKKCNNETSWTILANNVSNIITEIHSRDRSTVEGRVTFAKVEETIAVRCLAKNLLGAENRELKLVAPTLRSELTVA
B2: PDGF-BB (ligand, UniProt P01127 82-190, looked up)
chain: SLGSLTIAEPAMIAECKTRTEVFEISRRLIDRTNANFLVWPPCVEVQRCSGCCNNRNVQCRPTQVQLRPVQVRKIEIVRKKPIFKKATVTLEDHLACKCETVAAARPVT
modifications: NT-647 dye on amines (amine reactive labelling kit RED-NHS) in the MST experiments; unlabelled in the signalling assays
notes: PDGF-B chain of dimeric PDGF-BB, bought recombinant protein; also called dimeric PDGF-BB; source: bought: R&D # 220-BB
B3: PDGFRα-Fc I139A + Y206A (Fc fusion)
chain: B1 chain with I116A, Y183A
B4: PDGFRα-Fc I139E (Fc fusion)
chain: B1 chain with I116E
B5: PDGFRα-Fc I139E + Y206S (Fc fusion)
chain: B1 chain with I116E, Y183S
B6: PDGFRα-Fc Y206S (Fc fusion)
chain: B1 chain with Y183S
B7: PDGFRα-Fc Y206S + V242K (Fc fusion)
chain: B1 chain with Y183S, V219K
B8: PDGFRα-Fc I139E + V242K (Fc fusion)
chain: B1 chain with I116E, V219K

How the values were obtained:
[1] = biological target: T1, gH/gL/gO trimer of HCMV TB40-BAC4 (human cytomegalovirus, strain TB40/E …); assay: cell-based or functional assay
[2] = biological target: T1, gH/gL/gO trimer of HCMV TB40-BAC4; assay: cell-based or functional assay; remark: listed apart in the source
PDGF-BB = biological target: B2; assay: cell-based or functional assay
[3] = biological target: T1, gH/gL/gO trimer of HCMV TB40-BAC4; assay: cell-based or functional assay; remark: listed apart in the source
PDGFRα-Fc I139E + Y206S = biological target: B5; assay: MST; Monolith NT.115 Pico; read-out: dose-dependent changes of MST traces (F1 over F0; MST-on time 4-5 s in Fig 7, 1.5-2.5 s in Fig 10A); 0.1 nmol/l NT-647-labelled PDGF-BB constant, PDGFRα-Fc titrated; 60% excitation power; 0.025% Tween-20, 50 mM NaCl; 25°C; conditions: both partners purified
PDGFRα-Fc wild type = biological target: B1; assay: MST; Monolith NT.115 Pico; read-out: dose-dependent photo-bleaching (fluorescence quenching) rate in a prolonged initial fluorescence segment (5 s) before the thermophoresis segment; 0.1 nmol/l NT-647-labelled PDGF-BB constant, PDGFRα-Fc variants in 16 concentrations over 5 log steps; 60% excitation power; one site binding model; IgG elution buffer neutralised with 0.1 M Tris pH 8.0, 0.025% Tween-20, 50 mM NaCl; 25°C; conditions: both partners purified
PDGFRα-Fc I139E = biological target: B4; assay: as above; conditions: both partners purified
PDGFRα-Fc Y206S = biological target: B6; assay: as above; conditions: both partners purified
PDGFRα-Fc V242K = biological target: T2, PDGFRα-Fc V242K (UniProt P16234-1 24-528, V242K); assay: MST; Monolith NT.115 Pico; read-out: dose-dependent changes of MST traces (F1 over F0; MST-on time 4-5 s in Fig 7, 1.5-2.5 s in Fig 10A); 0.1 nmol/l NT-647-labelled PDGF-BB constant, PDGFRα-Fc titrated; 60% excitation power; 0.025% Tween-20, 50 mM NaCl; 25°C; conditions: both partners purified
T2 construct: PDGFRα (CD140a), extracellular domain, aa 24 to 528, NCBI XP_005265800; Point mutant of m1; also called V242K single mutant; source: HEK 293 F suspension cells, transiently transfected (PEI), purified from the medium with Protein A beads

PDGFRα-Fc I139A + Y206A = biological target: B3; assay: MST; Monolith NT.115 Pico; read-out: dose-dependent photo-bleaching (fluorescence quenching) rate in a prolonged initial fluorescence segment (5 s) before the thermophoresis segment; 0.1 nmol/l NT-647-labelled PDGF-BB constant, PDGFRα-Fc variants in 16 concentrations over 5 log steps; 60% excitation power; one site binding model; IgG elution buffer neutralised with 0.1 M Tris pH 8.0, 0.025% Tween-20, 50 mM NaCl; 25°C; conditions: both partners purified

With B1 the “HCMV inhibition EC50 (TB40-BAC4-IE-GLuc, fibroblasts, immediate-early antigen staining)” value [1] was 0.0056 µg/mL, the “EC50 of inhibition of HCMV TB40-BAC4-IE-GLuc infection of fibroblasts (Gaussia luciferase read-out)” value [2] was < 0.02 µg/mL and the “EC50 of inhibition of HCMV TB40-BAC4 infection of fibroblasts and of endothelial cells (immediate-early antigen staining)” value [2] was ~0.01 µg/mL. For the same binder, the “EC50 for inhibition of PDGF signaling (6 ng/ml PDGF-BB, phospho-Akt ELISA, fibroblasts)” value (PDGF-BB) was 0.013 µg/mL and the “HCMV inhibition EC50 (Table 2; differs from Table 1)” value [3] was 0.0046 µg/mL.

B2 gave a Kd (PDGFRα-Fc I139E + Y206S) of 200 nM, a Kd (PDGFRα-Fc wild type) of 0.14 nM and a Kd (PDGFRα-Fc I139E) of 4.02 nM. For the same binder, the Kd (PDGFRα-Fc Y206S) was 7.32 nM, the Kd (PDGFRα-Fc V242K) was 92 nM and the Kd (PDGFRα-Fc I139A + Y206A) was 4.6 nM.

In the case of B3, the “HCMV inhibition EC50 (TB40-BAC4-IE-GLuc, fibroblasts, immediate-early antigen staining)” value [1] is reported as 0.0198 µg/mL.

With B4 the “HCMV inhibition EC50 (TB40-BAC4-IE-GLuc, fibroblasts, immediate-early antigen staining)” value [1] was 0.0328 µg/mL and the “EC50 for inhibition of PDGF signaling (6 ng/ml PDGF-BB, phospho-Akt ELISA, fibroblasts); the paper says incomplete inhibition precludes a precise value” (PDGF-BB) was ~2 µg/mL.

B5 was tested, and the “HCMV inhibition EC50 (TB40-BAC4-IE-GLuc, fibroblasts, immediate-early antigen staining)” value [1] was 0.0252 µg/mL.

For B6, the “HCMV inhibition EC50 (TB40-BAC4-IE-GLuc, fibroblasts, immediate-early antigen staining)” value [1] was 0.0311 µg/mL.

With B7 the “HCMV inhibition EC50 (fibroblasts, immediate-early antigen staining)” value [2] was 0.047 µg/mL.

In the case of B8, the “HCMV inhibition EC50 (fibroblasts, immediate-early antigen staining)” value [2] is reported as 0.027 µg/mL.
